How the values were obtained:
[1] = target: HIV-1 nucleocapsid protein (NC) (HIV-1 NL4-3) (UniProt P12493); experiment: ITC; settings: ITC: 10 mM Tris-HCl pH 7.0, 140 mM KCl, 10 mM NaCl, 5 mM MgCl2, 5 mM TCEP, 30 °C; NC (120-240 µM) titrated into RNA (0.6-4 µM)
[2] = target: T1, HIV-1 nucleocapsid protein (NC) (HIV-1 NL4-3, UniProt P12493); experiment: ITC; endothermic sites, n=2.3±0.2; ITC: 10 mM Tris-HCl pH 7.0, 140 mM KCl, 10 mM NaCl, 5 mM MgCl2, 5 mM TCEP, 30 °C; NC (120-240 µM) titrated into RNA (0.6-4 µM); settings: protein: recombinant; tags: none stated; hairpin, unpaired 5'-GA and AG-3' ends
[3] = target: T1, HIV-1 nucleocapsid protein (NC); experiment: ITC; exothermic sites, n=2.8±0.3; ITC: 10 mM Tris-HCl pH 7.0, 140 mM KCl, 10 mM NaCl, 5 mM MgCl2, 5 mM TCEP, 30 °C; NC (120-240 µM) titrated into RNA (0.6-4 µM); settings: protein: recombinant; tags: none stated; hairpin, unpaired 5'-GA and AG-3' ends
[4] = target: T1, HIV-1 nucleocapsid protein (NC); experiment: ITC; exothermic only, n=1.2±0.3; ITC: 10 mM Tris-HCl pH 7.0, 140 mM KCl, 10 mM NaCl, 5 mM MgCl2, 5 mM TCEP, 30 °C; NC (120-240 µM) titrated into RNA (0.6-4 µM); settings: protein: recombinant; tags: none stated; hairpin, blunt
[5] = target: T1, HIV-1 nucleocapsid protein (NC); experiment: ITC; exothermic only, n=1.8±0.1; ITC: 10 mM Tris-HCl pH 7.0, 140 mM KCl, 10 mM NaCl, 5 mM MgCl2, 5 mM TCEP, 30 °C; NC (120-240 µM) titrated into RNA (0.6-4 µM); settings: protein: recombinant; tags: none stated; hairpin with single-stranded 3' GGAG region
[6] = target: T1, HIV-1 nucleocapsid protein (NC); experiment: ITC; exothermic only, n=1.2±0.1; ITC: 10 mM Tris-HCl pH 7.0, 140 mM KCl, 10 mM NaCl, 5 mM MgCl2, 5 mM TCEP, 30 °C; NC (120-240 µM) titrated into RNA (0.6-4 µM); settings: protein: recombinant; tags: none stated; hairpin, blunt
[7] = target: T1, HIV-1 nucleocapsid protein (NC); experiment: ITC; exothermic sites, n=6.6±0.2 per dimer; ITC: 10 mM Tris-HCl pH 7.0, 140 mM KCl, 10 mM NaCl, 5 mM MgCl2, 5 mM TCEP, 30 °C; NC (120-240 µM) titrated into RNA (0.6-4 µM); settings: protein: recombinant; tags: none stated; duplex dimer of 2 strands

**Q.** TAR-PolyA was tested. Which Kd [1] did it give?
**A.** Its Kd is 1320 nM.

**Q.** With 5'-LΔPBS as the molecule, how does the Kd [1] read?
**A.** The Kd was 760 nM.

**Q.** For 5'-L (5'-L344), which Kd [1] is on record?
**A.** Its Kd is 880 nM.

B1: ΨHP (structured_RNA)
RNA: GAUUUUGACUAGCGGAGGCUAGAAGGAGAG
**Q.** For B1, which Kd [2] is on record?
**A.** Its Kd is 26 ± 21 nM.

**Q.** And the Kd [3]?
**A.** Its Kd is 1540 ± 240 nM.

B2: ΨHP-stable (structured_RNA)
RNA: GGUUUUGACUAGCGGAGGCUAGAAGGAGCC
**Q.** Which Kd [4] does the source give for B2 here?
**A.** The Kd was 300 ± 150 nM.

B3: Ψ-fragment (structured_RNA)
RNA: GACUAGCGGAGGCUAGAAGGAG
**Q.** How did the Kd [5] turn out when B3 was run?
**A.** The Kd was 450 ± 30 nM.

B4: Ψ-apical loop (structured_RNA)
RNA: GGACUAGCGGAGGCUAGUCC
**Q.** Which Kd [6] does the source give for B4 here?
**A.** The Kd was 320 ± 30 nM.

B5: DIS (structured_RNA)
RNA: GGCAGGACUCGGCUUGCUGAAGCGCGCACGGCAAGAGGCGAGGGGCC
**Q.** Which Kd [7] does the source give for B5 here?
**A.** Its Kd is 340 ± 30 nM.
